Laboratory results from US20250146022A1, “STABILISING THE HUMAN SPINDLE BY KIFC1/HSET” (MAX-PLANCK-GESELLSCHAFT ZUR FOERDERUNG DER WISSENSCHAFTEN …, priority 2021, published 2025).

B1: wild-type HSET: Wild-type HSET re-expressed from microinjected mClover3-HSET mRNA in KIFC1/HSET-depleted aMTOC-free mouse oocytes (protein)
chain: MDPQRSPLLEVKGNIELKRPLIKAPSQLPLSGSRLKRRPDQMEDGLEPEKKRTRGLGATTKITTSHPRVPSLTTVPQTQGQTTAQKVSKKTGPRCSTAIATGLKNQKPVPAVPVQKSGTSGVPPMAGGKKPSKRPAWDLKGQLCDLNAELKRCRERTQTLDQENQQLQDQLRDAQQQVKALGTERTTLEGHLAKVQAQAEQGQQELKNLRACVLELEERLSTQEGLVQELQKKQVELQEERRGLMSQLEEKERRLQTSEAALSSSQAEVASLRQETVAQAALLTEREERLHGLEMERRRLHNQLQELKGNIRVFCRVRPVLPGEPTPPPGLLLFPSGPGGPSDPPTRLSLSRSDERRGTLSGAPAPPTRHDFSFDRVFPPGSGQDEVFEEIAMLVQSALDGYPVCIFAYGQTGSGKTFTMEGGPGGDPQLEGLIPRALRHLFSVAQELSGQGWTYSFVASYVEIYNETVRDLLATGTRKGQGGECEIRRAGPGSEELTVTNARYVPVSCEKEVDALLHLARQNRAVARTAQNERSSRSHSVFQLQISGEHSSRGLQCGAPLSLVDLAGSERLDPGLALGPGERERLRETQAINSSLSTLGLVIMALSNKESHVPYRNSKLTYLLQNSLGGSAKMLMFVNISPLEENVSESLNSLRFASKVNQCVIGTAQANRK
modifications: left off: large carriers
notes: Wild-type HSET re-expressed from microinjected mClover3-HSET mRNA in KIFC1/HSET-depleted aMTOC-free mouse oocytes

Assays:
mouse oocytes = assay: AURA inhibition in mouse oocytes, NUMA enrichment at spindle poles; assay type: cell-based; details: constitutive treatment, 500 nM; data not shown
Source text: aMTOCs enrich several regulatory kinases at the spindle poles in mouse oocytes (26). The inventors considered that AURA, which is an essential kinase for aMTOC functions (43, 44) and can phosphorylate NUMA (45), negatively regulates NUMA enrichment at microtubule minus-ends in mouse oocytes. […] To confirm that NUMA enrichment is regulated by AURA-dependent phosphorylation, the inventors depleted endogenous NUMA by follicle RNAi (39) and re-expressed NUMA with mutations at the AURA phosphorylation site S1969. […] Together, the inventors infer that AURA phosphorylation negatively regulates NUMA enrichment at microtubule minus-ends in mouse oocytes. All drugs were prepared in DMSO (Sigma-Aldrich) as 1000× stocks. […] Specific parameters used were: 0.1 (for microtubule packing index) or 1.0 (for SD of fluorescence intensity within spindle isosurface) μm for smoothing size, no background subtraction, 500-750 and 1000-1750 μm^3 for minimum and maximum expected total volume of surface object, respectively. SD of fluorescence intensity, volume and volume of the object-oriented minimum bounding box for the spindle isosurface were exported into Excel. Microtubule packing index was calculated by dividing the volume of spindle isosurface by the volume of the object-oriented minimum bounding box. […] Mean fluorescence intensity and volume of isosurfaces were exported into Excel. […]

[1] = tested on: KIFC1/HSET-depleted aMTOC-free mouse oocytes; assay: Rescue of spindle polarity in KIFC1/HSET-depleted aMTOC-free mouse oocytes (human oocyte mimics); assay type: cell-based
Source text: This domain, together with the conserved, microtubule-binding motor domain, allows KIFC1/HSET to organize microtubules via crosslinking and/or sliding (86). To investigate the requirement of different domains in KIFC1/HSET, the inventors expressed a series of truncation mutants in aMTOC-free mouse oocytes (FIG. 7K). […] To examine whether the motor activity is dispensable for the function of KIFC1/HSET in aMTOC-free mouse oocytes, the inventors depleted endogenous KIFC1/HSET by follicle RNAi and restored expression with wild-type HSET or with HSET(N593K), which crosslinks microtubules but cannot slide (87). […] Together, the inventors infer that the appropriate level of KIFC1/HSET's crosslinking and sliding activities are required for proper bipolar spindle assembly in the absence of aMTOCs.
Mouse follicles were microinjected with 3.5 pl of siRNAs at a needle concentration of 2 μM as previously described (11). For rescue experiments, in vitro grown oocytes were microinjected with 3.5 pl of mRNAs. mClover3-HSET mRNA was microinjected at a needle concentration of 275 ng/μl, mClover3-HSET(N593K) mRNA at 275 ng/μl, mClover3-NUMA(S1955D) mRNA at 400 ng/μl, mClover3-NUMA(S1955A) mRNA at 400 ng/μl, mClover3-NUMA(SpM-4A) mRNA at 400 ng/μl, mClover3-NUMA(ΔMTBD1) mRNA at 400 ng/μl and mClover3-NUMA(ΔMTBD2) mRNA at 400 ng/μl. Oocytes were allowed to express the mRNAs for 3-4 h before release.
To obtain mouse MI spindles, oocytes were incubated at 37° C. for around 7 h after released into dbcAMP-free medium. To obtain porcine and bovine MI spindles, oocytes were incubated at 39° C./5% CO2 for around 11 and 12 h, respectively, after released into RO-3306-free medium. To obtain human MI spindles, oocytes were incubated at 37° C. for around 14 and 15 h after NEBD. None of the oocytes used for immunofluorescence analyses was subjected to live imaging before fixation.
Time-lapse movies of live mouse, bovine and porcine oocytes, and fixed human and mouse spindles were analyzed in 3D using Imaris (Bitplane). To determine the stages of meiosis and to score for spindle instability, the timing of meiotic progression was quantified relative to the timing of NEBD. NEBD was defined as the time point when the sharp boundary between the nucleus and cytoplasm disappeared in the differential interference contrast image (for mouse oocytes) or when the nucleus started collapsing in the H2B channel (for bovine and porcine oocytes). Spindle poles were defined as regions of MAP4 or MAP4-MTBD or α-tubulin intensity that prominently protruded from the main microtubule mass. In FIG. 1D, oocytes with bipolar spindle, in which ends of all microtubules converged at the poles, were scored as having focused poles. […] For mouse oocytes, unfocused poles were further classified into mildly unfocused poles (with partially separated microtubule ends) and severely unfocused poles (with fully separated microtubule ends). In FIG. 4D, bovine and porcine oocytes, in which the spindle maintained a barrel-shaped bipolar morphology and a detectable spindle axis, were scored as having stable spindle poles. Oocytes, in which the spindle lost their initial bipolarity and underwent dynamic remodeling of the pole(s) were scored as having unstable spindle poles. […] Oocytes, in which the spindle had more than two poles, were scored as having multipolar spindle. In FIG. 1H, mouse oocytes, in which the spindle had two well-defined poles, were scored as having bipolar spindle. Mouse oocytes, in which the spindle had two poorly defined poles, were scored as having apolar/round spindle. Mouse oocytes, in which the spindle had more than two poles, were scored as having multipolar spindle. […] Mouse oocytes, in which the spindle lost its barrel shape but contains several weakly associated microtubule bundles, were scored as having disorganized spindle.

Molecule | NUMA enrichment at the spindle poles (mouse oocytes) | HSET to α-tubulin intensity ratio, more HSET loaded onto spindles with poorly focused poles ([1]; bipolar MI spindles rescued with wild-type HSET, FIG. 3I) | spindle polarity (manual scoring) ([1]; endogenous KIFC1/HSET depleted by follicle RNAi, expression restored from mRNA, MI oocytes, FIGS. 3, G and H) | oocytes with a bipolar spindle but poorly focused poles that lacked NUMA ([1]; oocytes rescued with wild-type HSET, FIG. 3G)
COc1cc(Nc2ncc3c(n2)-c2ccc(Cl)cc2C(c2c(F)cccc2OC)=NC3)ccc1C(=O)O [MLN8237] | increased NUMA enrichment at the spindle poles |  |  | 
B1 |  | ~2 fold | assembled a bipolar spindle | around 25%
